Where “and” joins values, the source holds several entries; their conditions need not be identical. Identical values can stand only once.
How the values were obtained:
[1] = target: S. cerevisiae Ire1 kinase/RNase domains (WT Sc Ire1-KR) (S. cerevisiae); test: AUC; sedimentation equilibrium, 20°C; 2.5, 5 and 10 μM protein at 7,000, 10,000 and 14,000 rpm; 50 mM Tris/HCl pH 7.5, 200 mM NaCl, 2 mM Mg(OAc)2, 2 mM TCEP; global fit to a self-association equilibrium model; monomer-dimer equilibrium constant
[2] = target: Sc Ire1-KR(K992D,Y1059R) (S. cerevisiae); test: cross-linking; 12.5 μM Ire1-KR, 2 mM ADP, 1 mM BS3 (bissulfosuccinimidyl suberate), 2 h on ice; 50 mM HEPES, 200 mM NaCl, 2 mM Mg(OAc)2, 2 mM TCEP, 10% glycerol; SDS-PAGE, coomassie blue or SYPRO Ruby
[3] = target: Sc Ire1-KR(K992D,Y1059R) (S. cerevisiae); test: AUC; sedimentation equilibrium, 20°C; 2.5, 5 and 10 μM protein at 7,000, 10,000 and 14,000 rpm; 50 mM Tris/HCl pH 7.5, 200 mM NaCl, 2 mM Mg(OAc)2, 2 mM TCEP; global fit to a self-association equilibrium model; monomer-dimer equilibrium constant
[4] = target: Sc Ire1-KR(K992R,Y1059D) (S. cerevisiae); test: cross-linking; 12.5 μM Ire1-KR, 2 mM ADP, 1 mM BS3 (bissulfosuccinimidyl suberate), 2 h on ice; 50 mM HEPES, 200 mM NaCl, 2 mM Mg(OAc)2, 2 mM TCEP, 10% glycerol; SDS-PAGE, coomassie blue or SYPRO Ruby

Substance: S. cerevisiae Ire1 kinase/RNase domains (WT Sc Ire1-KR) (domain or fragment)
- Kd [1]: 57 µM

Substance: Sc Ire1-KR(K992D,Y1059R) (domain or fragment)
- stoichiometry N [2]: 2 and 4
- Kd [3]: 0.98 µM

Substance: Sc Ire1-KR(K992R,Y1059D) (domain or fragment)
- stoichiometry N [4]: 2

Reference: paper PMC8104961
